What was measured:
[1] = target: the molecule itself; experiment: SEC; FSEC, thermal disassembly: protein diluted 200-fold into destabilizing buffer pH 6 without or with cAMP (up to 5 mM), heated 10 min to the desired temperature; ratio of monomer to dimer species (ρ) against temperature; dimer to monomers
[2] = target: the molecule itself; experiment: SEC; FSEC of eGFP fusion constructs affinity purified in digitonin micelles; Superose 6 10/300, GFP fluorescence detected

| Protein | stoichiometry N [2] | binding result [1] | further results |
| --- | --- | --- | --- |
| sp9C1-eGFP, full length (FSEC sample) (natural protein, Strongylocentrotus purpuratus, UniProt A3RL54 30-1325, looked up, SLC9C1 (sperm-specific Na+/H+ exchanger), Strongylocentrotus purpuratus, full length; followed by a PreScission site and mEGFP-Twinstrep; A PreScission protease site lies between SLC9C1 and the mEGFP-Twinstrep tag; also called FL; FL-sp9C1; source: HEK293F, transiently transfected; not shown: mEGFP, C-terminal, kept; Twinstrep, C-terminal, kept) SSGGSGHTPTTQATHADDHDLTTHNGTEEHDDGHDDGHDDLHAHAPKVIVFISGSCLFGAISRSLFKKLPIPYTVVLLILGAILGVVASNVPLVEEHTRDVAHMDPHVLLQIFLPVLIFESAFAMDVHTFMRSFSQVCILALFGLVVASVLTAVLAMNLFNYNWNFSEAMMFGAIMSATDPVAVVALLKDLGASKQLGTIIEGESLLNDGCAIVIFNVFMKMVFFPQLTSTVGQNVLYFLQVAVAGPLWGYAVAKVTVFFLSHIFNDALVEITITLAATYLTYYIGDIWLEVSGVLAVVVLGLIVNAEKTSISPEVEVFLHRFWEMLAYLANTLIFMMVGVVVTQKALVAVDKMDWFYLIILYLAITIIRGMVISLFSPILSRIGYGLTWRNAVIMTWGGLRGAVGLALALVVENLAGNDVIGSKFLFHTAGIVVLTLVINATTIQTLLRILGMSDISIPKRLAMAGAVRRIHEGQNRTLNMLKSDRFLADADWDIATAACEISDPYSALSDDENAPADELTLGERKSVCPGCKAMVPNEPSPREFADMMEEARLRMLKAEKISYWKQFEHGMLAREALRLLVQHAEVAADEKDQFILVDDLKKSWQIKGIYPWLKRKLEDLISEKKIAAIPMPKYKLGKLMYKICHHMAFEVTINIAIVLNIVPIIMEFVVQDKMASVSTMAAPGSTVSSEPSSLQKIEDALRISNYVFFVIYAIEAIVKILGLGRHYIVSHWNKFDAFILVVALVDIIIAETLLKGSITINLSSIKVVKLFRLLRGLRMLRLTKALIPKLILVVNGKINNQLSLGYDVGKGYIIGEEEVGKIIDRMVDNKKILRELKHISETGRLQVVKELGLLQREHPGIAVSVKTRQAIRTILNHSRETIHELQGAGLLDEMEAHKLELTVEIKMKRLMNAPSSIPPPPPENLLKNVSWLAGDMKLIDFIKARASLLHFDYGEVIVREGDESDGLFLIVSGLVKLYGKSAFLDHDNPPVTAGSEENEVFEDYLTVGNVIGEMGVLTKKPRNATVTCETTVQVYFITAEDMNIAIDTFTLYPSLEYRLWRVVAIRIATPLIMEQMAFQGWTQEKVKLHLERGYLVDLAESHFQFNIDATLEDVILINGTAYNAHTREEIRSPCLISRTVHKLTFQYTATEEPRLFVVRNAEYNGPILDGRLDVDSKRSLISITEISSNMCLKHAAELRQKNSKVMLSRKSSGAAAKEEEDCIPNTSDVEQAAGVSPSVPTKTTPKPKSFLPSLGLSMSKERVNGEAVEESPVKTKQGEETPETEEGAAPRVNV | 2 | – | ρsat (saturating ratio of monomer to dimer species), 5 mM cAMP [1]: 2.4; ρsat (saturating ratio of monomer to dimer species), cAMP-free [1]: ~0.9 |
| sp9C1 K880A mutant, eGFP fusion (natural protein, Strongylocentrotus purpuratus, UniProt A3RL54 30-1325, looked up, SLC9C1, Strongylocentrotus purpuratus, with K880A; also called R880A (as printed once); source: HEK293F, transiently transfected; not shown: mEGFP, C-terminal, kept; Twinstrep, C-terminal, kept) SSGGSGHTPTTQATHADDHDLTTHNGTEEHDDGHDDGHDDLHAHAPKVIVFISGSCLFGAISRSLFKKLPIPYTVVLLILGAILGVVASNVPLVEEHTRDVAHMDPHVLLQIFLPVLIFESAFAMDVHTFMRSFSQVCILALFGLVVASVLTAVLAMNLFNYNWNFSEAMMFGAIMSATDPVAVVALLKDLGASKQLGTIIEGESLLNDGCAIVIFNVFMKMVFFPQLTSTVGQNVLYFLQVAVAGPLWGYAVAKVTVFFLSHIFNDALVEITITLAATYLTYYIGDIWLEVSGVLAVVVLGLIVNAEKTSISPEVEVFLHRFWEMLAYLANTLIFMMVGVVVTQKALVAVDKMDWFYLIILYLAITIIRGMVISLFSPILSRIGYGLTWRNAVIMTWGGLRGAVGLALALVVENLAGNDVIGSKFLFHTAGIVVLTLVINATTIQTLLRILGMSDISIPKRLAMAGAVRRIHEGQNRTLNMLKSDRFLADADWDIATAACEISDPYSALSDDENAPADELTLGERKSVCPGCKAMVPNEPSPREFADMMEEARLRMLKAEKISYWKQFEHGMLAREALRLLVQHAEVAADEKDQFILVDDLKKSWQIKGIYPWLKRKLEDLISEKKIAAIPMPKYKLGKLMYKICHHMAFEVTINIAIVLNIVPIIMEFVVQDKMASVSTMAAPGSTVSSEPSSLQKIEDALRISNYVFFVIYAIEAIVKILGLGRHYIVSHWNKFDAFILVVALVDIIIAETLLKGSITINLSSIKVVKLFRLLRGLRMLRLTKALIPKLILVVNGKINNQLSLGYDVGKGYIIGEEEVGKIIDRMVDNKKILRELKHISETGRLQVVAELGLLQREHPGIAVSVKTRQAIRTILNHSRETIHELQGAGLLDEMEAHKLELTVEIKMKRLMNAPSSIPPPPPENLLKNVSWLAGDMKLIDFIKARASLLHFDYGEVIVREGDESDGLFLIVSGLVKLYGKSAFLDHDNPPVTAGSEENEVFEDYLTVGNVIGEMGVLTKKPRNATVTCETTVQVYFITAEDMNIAIDTFTLYPSLEYRLWRVVAIRIATPLIMEQMAFQGWTQEKVKLHLERGYLVDLAESHFQFNIDATLEDVILINGTAYNAHTREEIRSPCLISRTVHKLTFQYTATEEPRLFVVRNAEYNGPILDGRLDVDSKRSLISITEISSNMCLKHAAELRQKNSKVMLSRKSSGAAAKEEEDCIPNTSDVEQAAGVSPSVPTKTTPKPKSFLPSLGLSMSKERVNGEAVEESPVKTKQGEETPETEEGAAPRVNV | – | binds | – |
| sp9C1 Y1035C mutant, eGFP fusion (natural protein, Strongylocentrotus purpuratus, UniProt A3RL54 30-1325, looked up, SLC9C1, Strongylocentrotus purpuratus, with Y1035C; source: HEK293F, transiently transfected; not shown: mEGFP, C-terminal, kept; Twinstrep, C-terminal, kept) SSGGSGHTPTTQATHADDHDLTTHNGTEEHDDGHDDGHDDLHAHAPKVIVFISGSCLFGAISRSLFKKLPIPYTVVLLILGAILGVVASNVPLVEEHTRDVAHMDPHVLLQIFLPVLIFESAFAMDVHTFMRSFSQVCILALFGLVVASVLTAVLAMNLFNYNWNFSEAMMFGAIMSATDPVAVVALLKDLGASKQLGTIIEGESLLNDGCAIVIFNVFMKMVFFPQLTSTVGQNVLYFLQVAVAGPLWGYAVAKVTVFFLSHIFNDALVEITITLAATYLTYYIGDIWLEVSGVLAVVVLGLIVNAEKTSISPEVEVFLHRFWEMLAYLANTLIFMMVGVVVTQKALVAVDKMDWFYLIILYLAITIIRGMVISLFSPILSRIGYGLTWRNAVIMTWGGLRGAVGLALALVVENLAGNDVIGSKFLFHTAGIVVLTLVINATTIQTLLRILGMSDISIPKRLAMAGAVRRIHEGQNRTLNMLKSDRFLADADWDIATAACEISDPYSALSDDENAPADELTLGERKSVCPGCKAMVPNEPSPREFADMMEEARLRMLKAEKISYWKQFEHGMLAREALRLLVQHAEVAADEKDQFILVDDLKKSWQIKGIYPWLKRKLEDLISEKKIAAIPMPKYKLGKLMYKICHHMAFEVTINIAIVLNIVPIIMEFVVQDKMASVSTMAAPGSTVSSEPSSLQKIEDALRISNYVFFVIYAIEAIVKILGLGRHYIVSHWNKFDAFILVVALVDIIIAETLLKGSITINLSSIKVVKLFRLLRGLRMLRLTKALIPKLILVVNGKINNQLSLGYDVGKGYIIGEEEVGKIIDRMVDNKKILRELKHISETGRLQVVKELGLLQREHPGIAVSVKTRQAIRTILNHSRETIHELQGAGLLDEMEAHKLELTVEIKMKRLMNAPSSIPPPPPENLLKNVSWLAGDMKLIDFIKARASLLHFDYGEVIVREGDESDGLFLIVSGLVKLYGKSAFLDHDNPPVTAGSEENEVFEDCLTVGNVIGEMGVLTKKPRNATVTCETTVQVYFITAEDMNIAIDTFTLYPSLEYRLWRVVAIRIATPLIMEQMAFQGWTQEKVKLHLERGYLVDLAESHFQFNIDATLEDVILINGTAYNAHTREEIRSPCLISRTVHKLTFQYTATEEPRLFVVRNAEYNGPILDGRLDVDSKRSLISITEISSNMCLKHAAELRQKNSKVMLSRKSSGAAAKEEEDCIPNTSDVEQAAGVSPSVPTKTTPKPKSFLPSLGLSMSKERVNGEAVEESPVKTKQGEETPETEEGAAPRVNV | – | binds | – |
| sp9C1 truncated at amino acid position 950, eGFP fusion (domain or fragment, Strongylocentrotus purpuratus, UniProt A3RL54 30-950, looked up, SLC9C1, Strongylocentrotus purpuratus, truncated at amino acid position 950; the CNBD, βR2 and the C-terminal tail are deleted; also called 950 construct; source: HEK293F, transiently transfected; not shown: mEGFP, C-terminal, kept; Twinstrep, C-terminal, kept) SSGGSGHTPTTQATHADDHDLTTHNGTEEHDDGHDDGHDDLHAHAPKVIVFISGSCLFGAISRSLFKKLPIPYTVVLLILGAILGVVASNVPLVEEHTRDVAHMDPHVLLQIFLPVLIFESAFAMDVHTFMRSFSQVCILALFGLVVASVLTAVLAMNLFNYNWNFSEAMMFGAIMSATDPVAVVALLKDLGASKQLGTIIEGESLLNDGCAIVIFNVFMKMVFFPQLTSTVGQNVLYFLQVAVAGPLWGYAVAKVTVFFLSHIFNDALVEITITLAATYLTYYIGDIWLEVSGVLAVVVLGLIVNAEKTSISPEVEVFLHRFWEMLAYLANTLIFMMVGVVVTQKALVAVDKMDWFYLIILYLAITIIRGMVISLFSPILSRIGYGLTWRNAVIMTWGGLRGAVGLALALVVENLAGNDVIGSKFLFHTAGIVVLTLVINATTIQTLLRILGMSDISIPKRLAMAGAVRRIHEGQNRTLNMLKSDRFLADADWDIATAACEISDPYSALSDDENAPADELTLGERKSVCPGCKAMVPNEPSPREFADMMEEARLRMLKAEKISYWKQFEHGMLAREALRLLVQHAEVAADEKDQFILVDDLKKSWQIKGIYPWLKRKLEDLISEKKIAAIPMPKYKLGKLMYKICHHMAFEVTINIAIVLNIVPIIMEFVVQDKMASVSTMAAPGSTVSSEPSSLQKIEDALRISNYVFFVIYAIEAIVKILGLGRHYIVSHWNKFDAFILVVALVDIIIAETLLKGSITINLSSIKVVKLFRLLRGLRMLRLTKALIPKLILVVNGKINNQLSLGYDVGKGYIIGEEEVGKIIDRMVDNKKILRELKHISETGRLQVVKELGLLQREHPGIAVSVKTRQAIRTILNHSRETIHELQGAGLLDEMEAHKLELTVEIKMKRLMNAPSSIPP | 2 | – | – |
| sp9C1 truncated at amino acid position 657, eGFP fusion (domain or fragment, Strongylocentrotus purpuratus, UniProt A3RL54 30-657, looked up, the ARD is partly deleted; source: HEK293F, transiently transfected; not shown: mEGFP, C-terminal, kept; Twinstrep, C-terminal, kept) SSGGSGHTPTTQATHADDHDLTTHNGTEEHDDGHDDGHDDLHAHAPKVIVFISGSCLFGAISRSLFKKLPIPYTVVLLILGAILGVVASNVPLVEEHTRDVAHMDPHVLLQIFLPVLIFESAFAMDVHTFMRSFSQVCILALFGLVVASVLTAVLAMNLFNYNWNFSEAMMFGAIMSATDPVAVVALLKDLGASKQLGTIIEGESLLNDGCAIVIFNVFMKMVFFPQLTSTVGQNVLYFLQVAVAGPLWGYAVAKVTVFFLSHIFNDALVEITITLAATYLTYYIGDIWLEVSGVLAVVVLGLIVNAEKTSISPEVEVFLHRFWEMLAYLANTLIFMMVGVVVTQKALVAVDKMDWFYLIILYLAITIIRGMVISLFSPILSRIGYGLTWRNAVIMTWGGLRGAVGLALALVVENLAGNDVIGSKFLFHTAGIVVLTLVINATTIQTLLRILGMSDISIPKRLAMAGAVRRIHEGQNRTLNMLKSDRFLADADWDIATAACEISDPYSALSDDENAPADELTLGERKSVCPGCKAMVPNEPSPREFADMMEEARLRMLKAEKISYWKQFEHGMLAREALRLLVQHAEVAADEKDQFILVDDLKKSWQIKGIYPWLKRKLEDLISEKKI | 2 | – | – |
| sp9C1 truncated at amino acid position 494, eGFP fusion (domain or fragment, Strongylocentrotus purpuratus, UniProt A3RL54 30-494, looked up, the ARD is deleted, the ion-exchange domain (ED) remains; source: HEK293F, transiently transfected; not shown: mEGFP, C-terminal, kept; Twinstrep, C-terminal, kept) SSGGSGHTPTTQATHADDHDLTTHNGTEEHDDGHDDGHDDLHAHAPKVIVFISGSCLFGAISRSLFKKLPIPYTVVLLILGAILGVVASNVPLVEEHTRDVAHMDPHVLLQIFLPVLIFESAFAMDVHTFMRSFSQVCILALFGLVVASVLTAVLAMNLFNYNWNFSEAMMFGAIMSATDPVAVVALLKDLGASKQLGTIIEGESLLNDGCAIVIFNVFMKMVFFPQLTSTVGQNVLYFLQVAVAGPLWGYAVAKVTVFFLSHIFNDALVEITITLAATYLTYYIGDIWLEVSGVLAVVVLGLIVNAEKTSISPEVEVFLHRFWEMLAYLANTLIFMMVGVVVTQKALVAVDKMDWFYLIILYLAITIIRGMVISLFSPILSRIGYGLTWRNAVIMTWGGLRGAVGLALALVVENLAGNDVIGSKFLFHTAGIVVLTLVINATTIQTLLRILGMSDISIPKRLAM | 2 | – | – |

Source: paper PMC10602139, “Architecture and rearrangements of a sperm-specific Na^+/H^+ exchanger” (Research Square, 2023)
